# Measured values taken from patent US11110115B2, “Nucleic acid molecule with anti-inflammatory and anti-coagulant and organ-protective properties” (APTAHEM AB, priority 2017, dated 2021).
# B1: SEQ ID NO:2: nucleic acid sequence of SEQ ID NO:1 in which each C and U is fluorinated to increase stability in plasma (nucleic acid)
# chain: GGGAAUUCGAGCUCGGUACCAACAAUACGACUACACCAUCAAAAGUAUUAUCUUGCAUCGAAGGUUGGCACGUAGCAAGCUCUGCAGUCG
# modifications: fluorinated C and U; (6)..(7) uracil is fluorinated; (8)..(8) cytosine is fluorinated; (12)..(12) cytosine is fluorinated; (13)..(13) uracil is fluorinated; (14)..(14) cytosine is fluorinated; (17)..(17) uracil is fluorinated; (19)..(20) cytosine is fluorinated; (23)..(23) cytosine is fluorinated; (26)..(26) uracil is fluorinated; (28)..(28) cytosine is fluorinated; (31)..(31) cytosine is fluorinated; (32)
# Assays:
# [1] = Arteriovenous shunt model, thrombus weight; format: in vivo, Sprague-Dawley male rats; conditions: SEQ ID NO:2 33.3 mg/kg i.v. 5 min prior; Rivaroxaban 10 mg/kg p.o. 90 min prior; 15 min extracorporeal circulation
# Procedure: This study was conducted at Shanghai WuXi AppTec Co., Ltd., and in accordance with WuXi IACUC standard animal procedures along with the IACUC guidelines that are in compliance with the Animal Welfare Act, the Guide for the Care and Use of Laboratory Animals, and the Office of Laboratory Animal Welfare (OLAW). Sprague-Dawley male rats with body weight ranging between 150-200 g (Vital River; Bejing, P.R. China) were fed ad libitum a rodent diet. Animals had free access to autoclaved and acidified drinking water. Animals were housed under standard laboratory conditions, air conditioned and filtered with adequate fresh air supply. Animals were kept in a climate controlled environment. Rivaroxaban (10 mg/kg) has been dissolved in water and stored at 4° C. 20 mg SEQ ID NO:2 (Biospring) was dissolved in 3 ml Saline, vortexed for 5 min., sonicated with a water bath ultrasonic for 1 minute to achieve 6.66 mg/ml SEQ ID NO:2. The animals were assigned to 3 dosing groups according to the body weight (see table 2). […] Extracorporeal circulation was maintained for 15 min, the thrombus weight formed on the thread was calculated by subtracting the average weight of the rough nylon thread. Significance of difference between control and treated groups was analyzed by performing analysis of variance (ANOVA) by EXCEL office software.
# [2] = Fibrinogen and D-dimer analysis of plasma in LPS-induced shock; format: in vivo, C57BL/6 mice; conditions: blood at Hour 28
# Procedure: In this study, female C57BL/6 mice of 10-12 weeks old (Taconic Biosciences) were used. Animals had free access to autoclaved and acidified drinking water. Animals were housed under standard laboratory conditions, air conditioned and filtered with adequate fresh air supply. Animals were kept in a climate-controlled environment. Lipopolysaccharide (LPS) from E. coli (O111:B4) was diluted in PBS. SEQ ID NO:2 was stored in powder form at 4° C. until use. Powder was added to saline and vortexed into solution to prepare SEQ ID NO:2 stock solution. […] For all other groups, LPS was injected intraperitoneally at 10 mg/kg. Mice were intravenously injected 15 minutes and 60 minutes after LPS administration with SEQ ID NO:2 at concentrations of 10, 25, 50 and 100 mg/kg. Except group 7, which was intravenously injected once at 15 minutes and once at 120 minutes after LPS administration. Blood collected at Hour 28 was analysed for fibrinogen and D-dimer analysis from citrated plasma performed by IDEXX Laboratories, Inc. (N. Grafton, Mass.). Hook Laboratories attempted to collect enough blood to run each analysis 5 times for each group, but in one case (citrated plasma for D-dimer, for Group 4) we were able to collect only enough blood to run the analysis 4 times.
# [3] = Comparable ex vivo APTT study, canine
# [4] = Comparable ex vivo APTT study, mouse
# [5] = Comparable ex vivo APTT study, non-human primate
# [6] = Tail bleeding model (bleeding time); format: in vivo, Sprague-Dawley rats; conditions: for group average bleeding time compared to matched vehicle group: SEQ ID NO:2 5, 20, 40 mg/kg i.v. 5 min before, Rivaroxaban 10 mg/kg PO 1 hour before, Warfarin 0.5 mg/kg IV
# Procedure: A total of 36 Sprague-Dawley male and female rats were utilized and divided into six groups comprising of 6 animals per group. Animal handling was performed according to guidelines of the National Institute of Health and the Association for Assessment and Accreditation of Laboratory Animal Care. Animals were fed ad libitum a commercial rodent diet (Teklad Certified Global 18% Protein Diet cat #: 2018SC). Animals had free access to autoclaved and acidified drinking water (pH between 2.5 and 3.5) obtained from the municipality supply. Animals were housed under standard laboratory conditions, air conditioned and filtered with adequate fresh air supply. Animals were kept in a climate controlled environment.
# SEQ ID NO:2 (Biospring) (100 mg) was dissolved in 5 ml saline to form a stock solution of 20 mg/ml. Vehicle (saline) was provided by Pharmaseed as ready to use for i.v. administration. Rivaroxaban (Bayer, Pharmaseed Ltd) dosing solution was diluted at 10 mg/kg (Group 2M). Warfarin (Ceriliant, Pharmaseed Ltd) was diluted at 0.5 mg/kg (Group 3M). Both Rivaroxaban and Warfarin are clinical standards with anticoagulation activity. To obtain SEQ ID NO:2 dosing solution (2.5 mg/ml) for dose level of 5 mg/kg and dose volume of 2 ml/kg for i.v. injection, 0.375 ml of the above 20 mg/ml stock solution was diluted with 2.625 ml of saline (Group 4M). To obtain SEQ ID NO:2 dosing solution (10 mg/ml) for dose level of 20 mg/kg and dose volume of 2 ml/kg for i.v. injection, 1.5 ml of the above 20 mg/ml stock solution was diluted with 1.5 ml saline (Group 5M). To obtain SEQ ID NO:2 dosing solution (20 mg/ml) for dose level of 40 mg/kg and dose volume of 2 ml/kg for i.v. injection, the above 20 mg/ml stock used (Group 6).
# Rats were intravenously injected five minutes before bleeding time assay. […] Three treated groups received SEQ ID NO:2 at dose levels of 5, 20 and 40 mg/kg saline solution. In each gender, control groups received saline Vehicle. A positive control group received Rivaroxaban (10 mg/kg). Rivaroxaban was administered by oral gavage 1 hour before bleeding time assay. A second positive control groups received Warfarin (0.5 mg/kg).
# Male and female rats were anaesthetized by intraperitoneal injection of ketamine/xylazine. Bleeding time was monitored as described in Stupnisek et al. (2012), until blood flow stopped for a complete 30-sec interval or till the end of 30 min period. In deeply anaesthetized rats (placed in ventral position) the tail was transected with a surgical scalpel 2 mm from the tip (and submerged into a tube with 40 ml of saline at room temperature in vertical position) and the duration and amount of bleeding was measured to evaluate the hemostatic effect of the agents or saline administration. Following the completion of bleeding time evaluation, all rats were immediately sacrificed by CO2 asphyxiation.
# Numerical results were given as means±standard errors. If applicable, statistical analysis was carried out using one-way ANOVA followed by Dunnett's Multiple Comparison post Test. A probability of 5% (p≤0.05) was regarded as significant.
molecule,measurement,setting,value
B1,"thrombus weight, less than vehicle group",[1],48.1%
same,Plasma D-dimer concentrations compared to vehicle treated group,[2]; 50 mg/kg at 60 and 120 minutes after LPS,significantly lower
same,Plasma D-dimer concentrations compared to vehicle treated group,"[2]; 50 mg/kg at 60 and 120 minutes after LPS, listed as Apta-1",greatest reductions
same,Plasma D-dimer concentrations compared to vehicle treated group,[2]; 100 mg/kg at 15 and 60 min after LPS,significantly lower
same,"D-dimer in plasma, dose dependence","[2]; 10, 25, 50, 100 mg/kg i.v. after LPS",reduced D-dimer in a dose dependent manner
same,fibrinogen concentrations in plasma compared to vehicle treated mice,"[2]; SEQ ID NO:2 treated mice (10, 25, 50, 100 mg/kg i.v.)",no significant differences
same,positive effect on APTT,[3],confirmed
same,positive effect on APTT,[4],confirmed
same,positive effect on APTT,[5],confirmed
same,anti-coagulation activity relative to clinical care standards (Rivaroxaban and Warfarin),"[6]; all doses (5, 20, 40 mg/kg i.v.), bleeding time",equivalent
same,group average bleeding time compared to matched vehicle group,[6]; female rats,increased significantly
same,dose response effect on bleeding time,"[6]; male rats, 5, 20, 40 mg/kg i.v.",can be observed
same,group average bleeding time compared to matched vehicle group,[6]; male rats,increased significantly
